{
  "source": "patent US12685781B2",
  "about": "“Anti-HER3 antibody-drug conjugate” (DAIICHI SANKYO COMPANY, LIMITED, priority 2014, dated 2026)",
  "target": "HER3 (Homo sapiens, UniProt P21860)",
  "assay": "Inhibition of HER3 signal, Western blotting in A549 cells",
  "type": "cell-based",
  "description": "A human lung cancer cell line A549 (CRS-300114) from Cell Lines Service was dissociated by trypsin treatment, and 50,000 living cells were inoculated to 3 mL of DMEM/F12 (Invitrogen Corp., #21331-020)+10% FBS (Invitrogen Corp., #10270-106) in each of 6 wells. After culturing the cells for 3 days, the medium was replaced with 2 mL of a fresh medium.\nThe antibody or each antibody-drug conjugate was added directly to 2 mL of a medium in each of the 6 wells such that the final concentration was 10 ug/mL (20 uL of a stock solution of 1 ug/uL antibody or antibody-drug conjugate was added).\nU1-59, the antibody-drug conjugate (3), the antibody-drug conjugate (10), or the antibody-drug conjugate (13) was used as the antibody or the antibody-drug conjugate. An untreated group was used as a control.\nThe cells were cultured for 2 days, washed once with PBS, and treated with 100 uL of an ice-cooled buffer (50 mM 4-(2-hydroxyethyl)-1-piperazineethanesulfonic acid (HEPES), pH 7.5, 150 mM sodium chloride, 1 mM ethylenediaminetetraacetic acid (EDTA), 12.5% glycerin, 1% Triton X-100, and 10 mM sodium pyrophosphate tetrabasic supplemented with proteinase inhibitors (Roche Diagnostics, Inc., #11697 498 001), 10 mM sodium fluoride, 1 mM sodium vanadate, 1 mM phenyl-methane-sulfonyl-fluoride (PMSF), and 10 ug/mL aprotinin (Sigma-Aldrich Co. LLC, A1153)) for 30 minutes at 4 C for lysis. […]",
  "data": [
    {"substance": "U1-59: anti-HER3 human antibody; heavy and light chain variable regions SEQ ID NOs: 70 and 72; produced per WO 2007/077028", "values": [
      {"measurement": "HER3 phosphorylation compared with untreated cells", "setting": "A549, 10 ug/mL, 2 days", "result": "reduced"},
      {"measurement": "HER3 expression compared with untreated cells", "setting": "A549, 2 days", "result": "reduction in HER3 expression was also observed"}
    ]}
  ]
}
